From the DeepSol protein solubility set

Assay: soluble on expression in E. coli; label from the status in PepcDB or PDB records

| Sequence | soluble on expression in E. coli |
| --- | --- |
| MGHHHHHHSHMSWLKEVIGTEKAVIAMCHLRALPGDPGFDTRKGMNWVIDRAHDDLMALQNGGVDAVMFSNEFSLPYLTKVRPETTAAMARIIGQLMSEIRVPFGVNVLWDPVASFDLAMATDAKFIREIFTGAYASDFGVWDTNVGETIRHQHRIGAGHVKTLFNIVPEAAVYLGNRDVCSIAKSTVFNNNPDALCVSGLTAGARTDSAILKRVKETVPDTVVLANTGVCLENVEEQLCIADGCVTATTFKKDGVFANFVDQARVAKFMEKVRHIRQ | soluble |
| MVRIDLGIKGKKVIVTAASKGIGFATAKRFLEEGAKVIISSHDENNLRKAYERLKNLGEVNYIIADLTKPSDVENLIKSGYSTLGGLDVLVYVTGSPKPGNLFELTNEDWINAFYLLLMSAVIAVREAGKLMKSGGRIILSTSMTLKEPLPNLDLSNVVRLSLAGLIKVAARELGEKGILVNGVMPGWTLTDRVDQLVKDRAKREGRSEEEIIRDITRDVPLKRIGKPEEVANVILFLASELSTYVNGVLIPVDGGLIKATL | soluble |
| WTGEDSAEPNSDSAEWIRDMYAKVTEIWQEVMQRRDDDGTLHAACQVQPSATLDAAQPRVTGVVLFRQLAPRAKLDAFFALEGFPTEPNSSSRAIHVHQFGDLSQGCESTGPHYNPLAVPHPQHPGDFGNFAVRDGSLWRYRAGLAASLAGPHSIVGRAVVVHAGEDDLGRGGNQASVENGNAGRRLACCVVGVCGPGLWERQAREHSERKKRRRESECKAA | soluble |
| MALPGNYAPEVLLPQIAEINARIYADVNNGVYKAGFATRQSVYEKAVMVLFRCMDELEQLLSRQRYLIGNCITEADWRIFTTLIRFDPVYHGHFKCNLRRLVDYPNLWAYTRELYQWPGVAETVNMQHIKEHYYRSHPTINLEHHHHHH | not soluble |
| KASEEGIGGRKTCEYYPCHFEGQNCTFCFCPFYPCENEKTGGKWIQSSRGGRVWSCVDCHLVHKKEIAQKILDCLMHEGDTDELVKVAWKEVMEPIL | not soluble |
| MGSDKIHHHHHHMADPQTLDKIIDKTLDTVGKSREQIFEISEQSRNEYVSLEQELQEVRMKVAEIIDQSDRAEVHARFARNRLAEVSKQFHRYSNEEIRKVYEQANELQVKLALLQQEEQQLRDRRDAIERRLLNLKDTIERAEELVGQMTVVYNFLTGDLRQVGEALEDAREKQAFGLQIIQAQEEERRKLSREIHDGPAQMMANVLLRSELVERIYHDKGIDEALKEIRDLRKMVKSSLAEVRRIIYDLRPMALDDLGLIPTLKKYVKTFEEHTGIFVDFKHIGKGERFPEHVEIALFRLVQEALQNTRKHAKASHVHVKIEEQKTKFTVVIKDNGKGFDQTEKKEGSFGLVGMKERVNMLKGQLVIRTKPNDGTTIIISIPITTEE | not soluble |
| MKMKLTAAIIAAFVIIMGCAGGPKASKADELDLAIRDTSDYLNDNIPKGNKIIILNIQSDYASLSDYIIDELIANAVNDKIFKVVDRAQLEQIRAELNFQWSGEVDDKSALEIGKFLGAQTIVSGAISELGDRYRMRLRALNVQTSQVQGQYNRNIAAGKTIAALMKGGKSANTVYGGRTASGNANDTTAANQTPSRQPATPSSPQGSTKPVTTTYKIGDTGPAGGLIFYDKGNNIGGWRYLEAAPSDLGPNKFITEDPGSLPKNLYDLWEKTDGDKGRGVGKGKYNTEFLMGIAQARGGFNWAIRLCDEYELNGYNDWFMPSRDELNFMYGNLHMKGLGNFRLEQYWSSTGWQDTWGSYSAWYINFEDGTAAYQNASQPRRFRPIRQF | not soluble |
| MGSDKIHHHHHHMSVNGSQRVDLEVVANLIPPQSRVLDVGSGDGSLLELLQDTKQVDGRGLELSQRGVNECVARGLSVIQGDADKDLEFYPDKGFDFVVLSQTLQATRNPKLVLDELLRIGNRAIVSFPNFGHWRVRLSLFVKGRMPVTQDLPYSWYDTPNIHFCTIRDFVNLCEELGATVEKATALDAAGQKIGLSMPWWFWNFFGQQAVFLLKRN | not soluble |
